# Reference: publication PMC6477152 (2019)
# B1: FIP200ΔN1115:Luciferase [human] / GST:NDP52 [human] (parent complex)
# chain 1: ENYQVGLAELRTLMTIEKDQCISELISRHEEESNILKAELNKVTSLHNQAFEIEKNLKEQIIELQSKLDSELSALERQKDEKITQQEEKYEAIIQNLEKDRQKLVSSQEQDREQLIQKLNCEKDEAIQTALKEFKLEREVVEKELLEKVKHLENQIAKSPAIDSTRGDSSSLVAELQEKLQEEKAKFLEQLEEQEKRKNEEMQNVRTSLIAEQQTNFNTVLTREKMRKENIINDLSDKLKSTMQQQERDKDLIESLSEDRARLLEEKKKLEEEVSKLRSSSFVPSPYVATAPELYGACAPELPGESDRSAVETADEGRVDSAMETSMMSVQENIHMLSEEKQRIMLLERTLQLKEEENKRLNQRLMSQSMSSVSSRHSEKIAIRDFQVGDLVLIILDERHDNYVLFTVSPTLYFLHSESLPALDLKPGEGASGASRRPWVLGKVMEKEYCQAKKAQNRFKVPLGTKFYRVKAVSWNKKV
# chain 2: MEETIKDPPTSAVLLDHCHFSQVIFNSVEKFYIPGGDVTCHYTFTQHFIPRRKDWIGIFRVGWKTTREYYTFMWVTLPIDLNNKSAKQQEVQFKAYYLPKDDEYYQFCYVDEDGVVRGASIPFQFRPENEEDILVVTTQGEVEEIEQHNKELCKENQELKDSCISLQKQNSDMQAELQKKQEELETLQSINKKLELKVKEQKDYWETELLQLKEQNQKMSSENEKMGIRVDQLQAQLSTQEKEMEKLVQGDQDKTEQLEQLKKENDHLFLSLTEQRKDQKKLEQTVEQMKQNETTAMKKQQELMDENFDLSKRLSENEIICNALQRQKERLEGENDLLKRENSRLLSYMGLDFNSLPYQVPTSDEGGARQNPGLAYGNPYSGIQESSSPSPLSIKKCPICKADDICDHTLEQQQMQPLCFNCPICDKIFPATEKQIFEDHVFCHSL
# Variants of: B1
# Assay: LUMIER assay; HEK293ET cell lysates; bacterially expressed GST bait; read off a plot
row,Variant,response
1,chain 1 Q352A,~44 fold binding
2,chain 1 F459S,~52 fold binding
3,chain 1 E348A,~49 fold binding
4,chain 1 R349A,~33 fold binding
5,chain 1 T350A,~51 fold binding
6,chain 1 L351A,~38 fold binding
7,chain 1 L347A,~42 fold binding
8,chain 1 A452S,~22 fold binding
9,chain 1 N457S,~15 fold binding
